From patent US20160222100A1

Tests used:
[1] = target: secreted neuroligin-3 in conditioned medium of optogenetically stimulated Thy1::ChR2 mouse cortical slices (mouse); experiment: cell-based or functional assay
[2] = target: recombinant full-length neuroligin-3 (Origene) (mouse) (UniProt Q8BYM5); experiment: cell-based or functional assay
Sequence of UniProt Q8BYM5 (Q8BYM5 35-825 limits assumed): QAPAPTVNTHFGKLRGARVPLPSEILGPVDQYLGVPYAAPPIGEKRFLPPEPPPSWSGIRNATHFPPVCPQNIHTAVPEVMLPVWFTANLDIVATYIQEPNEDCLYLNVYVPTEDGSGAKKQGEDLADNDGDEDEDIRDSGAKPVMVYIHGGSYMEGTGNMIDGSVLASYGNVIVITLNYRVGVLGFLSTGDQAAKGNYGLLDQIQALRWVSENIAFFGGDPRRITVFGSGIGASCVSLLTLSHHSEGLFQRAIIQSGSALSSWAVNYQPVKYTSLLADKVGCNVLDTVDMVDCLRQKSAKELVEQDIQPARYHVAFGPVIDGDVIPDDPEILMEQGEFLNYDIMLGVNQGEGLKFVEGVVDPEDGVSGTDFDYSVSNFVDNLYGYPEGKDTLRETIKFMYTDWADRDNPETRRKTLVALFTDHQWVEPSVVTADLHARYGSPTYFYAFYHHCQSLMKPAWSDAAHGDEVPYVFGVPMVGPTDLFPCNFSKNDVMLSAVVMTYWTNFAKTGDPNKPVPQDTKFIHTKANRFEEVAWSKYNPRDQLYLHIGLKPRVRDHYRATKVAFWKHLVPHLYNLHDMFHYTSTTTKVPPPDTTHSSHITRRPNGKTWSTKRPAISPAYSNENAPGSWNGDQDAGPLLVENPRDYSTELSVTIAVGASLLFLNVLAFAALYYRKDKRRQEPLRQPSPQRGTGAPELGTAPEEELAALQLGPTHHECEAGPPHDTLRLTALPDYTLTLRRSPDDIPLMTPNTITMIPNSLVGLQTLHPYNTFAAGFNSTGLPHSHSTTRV

proliferation index of pHGG (SU-pcGBM2) cells, EdU assay, 24 h [1]: 0.34
proliferation index of pHGG (SU-pcGBM2) cells, EdU assay, 24 h [2]: 0.28
Substance: neurexin-1β (recombinant, R&D Systems) (ligand)
